This data set in a line: soluble fraction after stress (log2 fold change); higher = more stays soluble; pooled small domains, quantitative proteomics. As to conditions: stress: pH 4. The essentials: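 Aggregation propensity is estimated from the fold change in each domain's soluble amount after acid stress. Pooled small-domain libraries were stressed at pH 4, and higher log2 values mean more stayed soluble.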
Regarding “HMNREMLVHAIGQLKEKYASALELKYWHGFTEREIAAFLNISEKAANSRLVRGRVMLRKLLE”, the “soluble fraction (log2)” value worked out at 0.139.
In the case of “HMNREYELTAEESGQRLDKYLAGEMTDLSRSRIKELVQAGEILVNGKKSKVSYKVQKDDLIQVIVLPLE” it was -0.0759; in that of “HMNRITEFVVPEGTKKIRADKLLAESFPDHSRSDFHRAFDASLVRLEGQPISKNRKISQGDVLVFEMPEI”, -0.468; in that of “HMNRPQDLGEPYDGQFREHPEAWAFYAAQSPSYRRSASWWVLGAKQEVTRQRRLAALIDASAQGTRIPALT”, -0.0491.
In the case of “HMNRREFQFSEGSSNKFWSIELRDQSFIVHYGKIGTNGQAQEKTFATADAAKKEHDKLIAEKTKKGYVEVQ” it was -0.691; in that of “HMNRTKYYDFEGHPAKVVRLTLPVYLNKIGDEVVVYDSQKFAREASPISESQYNRMVAEIFQP”, -0.0162.
With “HMNSEAVQNVIDKISALPDDITAKAKSQIEEARAAYEALSDSEKARVTNYSTLVAAEKKLASVVKD”, the “soluble fraction (log2)” value came to 0.121.
The figure for “HMNSEERVLDTASKWLVKLDEGLDESEAQVLKVWLATPLHRDTFLEMVALWDKMSVLNELADIV” is -1.94.
“HMNSISDSELKALIKNNYLKFLKRIASDEEIEYHFNQIKNKTILLDELDSIFQNSQEYKDLVEHNNKIQN”: the “soluble fraction (log2)” value was -0.809.
The figure for “HMNSKQELAYQTIRARIVDGSYGPGYRIVIDEVARELGVSPIPVREAVRRLEAEGLITYTRHAGARVVA” is -0.273; for “HMNSLQLGSRGPTVSALQAKLNTMLVPSPRLVADGSFGPKTAQAVKAFQQMKRLVADGVVGPKTAAALGLS” it is 0.281; for “HMNSLQNNLKQARTRVGLTQGVLASQAGISRQAYSTLESGSANPSTEVALRLAQALQERVELLFYLPER” it is -0.609.
“HMNSNKFANAAAVAVAEKPADSYNPLFIYGPSGVGKTHLLYAIANEIHKHHPDYNIVYIKGDQFTNELIN”: the “soluble fraction (log2)” value was 0.201.
“HMNSNLSLTSYEEKIFFLLEKEKNLDELILESSFKAGEILSILMDLEIKHAIVSIPGGKYRRK”: the “soluble fraction (log2)” value is -1.32.
The figure for “HMNSNQESFENWLSANSWYNKDRAMRVFADSLGQELRNSGVSFEKALTQISAEVRKEFSHKFQ” is -0.213.
In the case of “HMNSNSLSFSKFMQEVEAGRVIEVQIKGNDIQGELSDGSKFKTYSPNYPNLVDKLSENKVSIVATPL” it was 0.105; in that of “HMNSNTIIFSQFLSEVDNGRVTQVQIQGNNIKGTLSNGKDFITYAPNDPNLIEKLTSKGVSISASPID”, 0.217; in that of “HMNSNTIIINDIMTKIGKEVKNFTEIYSIILKALAEHGEEYVRTNTEYALKNFTGNFDIFLEQLLLK”, -0.219.
“HMNSRAERKEAAKEAIRNLLREGMTFEELTGPWLEKRFAEEPFNRGARSWQMLISEIKEEPEFQHL”: the “soluble fraction (log2)” value was -0.916.
As to “HMNSRQPEEEALFELLAKNPYSDEQLEEIRIAIGSGISYKDVLVIADIKNTAKQMKKLRLKFTKDTG”, the “soluble fraction (log2)” value amounted to 0.118.
The figure for “HMNSTEQQTERFLATLTSLGGNAGNQRLQEALGWQGSTYQRIKQHLLDEGRIRTGRGRGGSVALSEATAT” is no less than 0.43; for “HMNSTGVYQRPDGFWEYRFTLSINGKKLPRRKSTDLMGNKLKTKREAIKAREEAIIALRTEKTI” it is 0.4; for “HMNSTVKVPNVVGMSVPQAKALLEQNHLLVQGIREVSTDKAPAGIVINQLPYSDAEVKEERHIYLTVSKGK” it is 0.0926.
In the case of “HMNSVKSPMPGTILGLKVSVGDTVKVGDELLVLESMKMENMINSPIDGTVSKILISEGDSVQHGQELII”, the “soluble fraction (log2)” value was found to be 0.102.
With “HMNSVSARRSAAITAISTGRIHSQEDLVQALKKAGYPVTQATASRDIEEIGAVRIRNQKGEMVYAIS”, the “soluble fraction (log2)” value was 0.321.
“HMNTEEITYSRFQQMLEAGEISQVSIESNRILILPSEETGIEKVLYTGIINDPGLVERLNSAGVEFRAPIE”: the “soluble fraction (log2)” value is -1.16.
The figure for “HMNTEFDVPDVVGKTLDEAEFVLKGSNLKRGLIMPVDDPSKAPGTIVRQNPEAGAGNKIRVGDVVDLWVVG” is 0.187; for “HMNTELSPKVWDVVQEFILYRKEIKAPMTEHAVKLLIGQLQKLSSDPDEQIEILRQSIVNGWKGIFSLK” it is -0.992; for “HMNTGTTISYSDFRDRVASGTVKEVQISDDRITGVLKNDETFNTVPVGNDSGLTKLLDDNGVTYSGTP” it is 0.212.
As for “HMNTIFSVNGPVVKVKDTKDFSMMEMVYVGEKKLIGEVIGITESFTTIQVYEVTTGLKVGEPVYTTGAPM”, the “soluble fraction (log2)” value turned out to be 0.166.
In the case of “HMNTIIHPIRLAYVDSGSIKSMAEQAEIDVKILTSEANSQIFWAIGDEKQIDRLYNLISQVDIIQNK”, the “soluble fraction (log2)” value is -1.42.
The figure for “HMNTKHVFIIEQDDEKKRLDIFLVEKLQDSRSFLKKGIVEGWVKVNESVVKPNYKLKQKDQITVIIPP” is -0.396.
For “HMNTNDFTIGTRVRTTKKGNGSSDGTSNTARSGIEGTITRIIPEAKYPYLVSTTVPMGWYKKDALEK”, the “soluble fraction (log2)” value amounted to 0.157.
In the case of “HMNTPLYLKIREQIFDALRSGRWAANDPLPSETKLASEFEVSQGTIRKAIDDLVAQNILYRHQGRGTFIRR” it was 0.125.
As for “HMNTSSVTVHYQDEAGKSLADTVTLTGKVGETYSSEQKKITGYNFKEVRGNPKGQFTTEAQTVTYVYTQAA”, the “soluble fraction (log2)” value is -0.195.
In the case of “HMNTWVEIFRAEDQGQIRDASLVLLAVKVAHRVDMNSSSAPWSLMVPAQDQQRAHHELTTYWQENAH” it was -1.35; in that of “HMNVAELIEGHEAEIAEVLKEFSLLYLMRLADELGEMTKSSSGNGPFQVLKGLVYEEIARRG”, -0.416; in that of “HMNVAVPTPADKRKVRVMKADINAKLRVNDANGAYAVYEELKEWVTLKGFTEWNDDLSKLSETMGSMKRKV”, -0.0387.
Consider “HMNVDALVGQRGRVTQTFDPGLRLGRVAVGGDDWRAETTTDQPLREGDLVEVVSVESNTLIVRPIA”, for which the “soluble fraction (log2)” value is 0.0146.
With “HMNVDSLIGQTARVIVDINNNDSIGYALVGGQEWTARAENDNDIIPKDTLVEIVGVSGVKLIVRRKE”, the “soluble fraction (log2)” value was -0.0794.
Turning to “HMNVDSLVGSEARVTAEIDNRKETGTAMVNGQEWTARAESDEEIYPVGTIVEIRKIQGVKLIVSTH”, the “soluble fraction (log2)” value was found to be 0.18.
Consider “HMNVEATAETLLALLKKNGGSLPFGDKSDPEAIQSQLKMSKKTFKKAAGTLFKKKLVRIEDHGIFL”, for which the “soluble fraction (log2)” value was 0.0517.
With “HMNVEGEVVVPNVIGRTMKDVAVILSDLGLRMEAEGTGVAKSSQPQHGTSVKRGTVVQVRFEPLSVN”, the “soluble fraction (log2)” value was -0.201.
For the sequence “HMNVEKLREMYPEGTKIILQEMQGESRMAKGLKGTVTHVDDAGQIHMKWENGSSLVLNVEVDTFKKIE”, the “soluble fraction (log2)” value is -0.562.
In the case of “HMNVEVDSIGDDDFLVKVSAGTSTEHRVTLTDAYWEQIWSSSLPKKEIISLSFAFLLEREPNSSIMRT” it was -0.937; in that of “HMNVNALIGQEGIVIKEINSGSNKIGQVKISGDTWSAVTTNDFTNAIPVGSNVKILKIDGVNLIVEPVY”, 0.207.
Consider “HMNVNVSFTQLRHKAEHAIQAKNWSEARNLLTLATLMRPTHRNVARRLKAVEQRNRLFRRLLLILTHRKV”, for which the “soluble fraction (log2)” value is -0.229.
The figure for “HMNVPFGFDEVNGKLVKNEEEQAIISEIKSLKNKGLSLRKIAEALNGRGIATKNGKAWTAVQIQRIA” is 0.22.
With “HMNVPLYIMIESAVEQRLLDGTYQVGKMIPTEFELMDEFSVSRETVRKAINLLVQRGKLEKKRGIGTFVAS”, the “soluble fraction (log2)” value was -0.26.
In the case of “HMNVSDIENKLNEMLSPLEKKVMVLYLEGKSYVEIGELLGRHTKSVDNALQRVKRKLEIYLKNRK” it was 0.295; in that of “HMNVTIGESIKNVINHYGTPIYSYNPNNQEKYYEFHTNKGVLVVTAIGKKNTGYVTRVSMTY”, -0.175.
On to “HMNVVDTGTDANYRVKISAVNLNMRLGPSTSYKSKGYITPGNYTIIKTSGDWGKVKETGYWVALKYTSKIN”, for which the “soluble fraction (log2)” value came to 0.175.
Turning to “HMNVVINNELVSLMVEAMKDGVSSKSIQEEFEGYKISGKTITKKVLTAHVNKALEVFADMQE”, the “soluble fraction (log2)” value is -0.477.
As to “HMNYDPEEKITQIRTMLEIHSRIEFNEIITPATRRGEIIIIFLALLHMIKRGYIVVRQHRLFGDITIFARD”, the “soluble fraction (log2)” value was found to be 0.22.
Consider “HMNYKDQISRYFQQAFHIYPKYQTMKNEEGNFTSKIFKDDKMIIEGVGKSKKKAEQDVSRKALIHFNVL”, for which the “soluble fraction (log2)” value amounted to 0.398.
As to “HMNYKNAIGQVGSVYVPIPPNREGLGQIEVKVQSRVSTVRAVSDHSERLENRVAVRVIELVDDRTLLVEKL”, the “soluble fraction (log2)” value is -1.13.
Take “HMNYTSEDIKLASELFFHLLNNRILPANDVLASQYYDNNEIREILENMAEEGGLRIFGTRENLHLVSNGE”: the “soluble fraction (log2)” value was -1.21.
The figure for “HMNYYDLLGIPKSATKQQIRKAYRTKAKEFHPDVNGPFNSHMHFLLLKQAYETLMDANMRHVYDMALIS” is 0.215; for “HMPADHYEVLGIARDADAAEVKRAYRRLARESHPDANHGDSGAEVRFKAVSAAYEVLSDPERRARYDRFGH” it is -0.257; for “HMPANVELLRTFTNKTGTKIKARIVAVSDNKVKLIRDDSKKFIVPIDSLSEEDQKYLKDWIANEVGEQ” it is 0.133.
On to “HMPARTANEEAIRKYLLNHDSITRKETQALLKTGQSAAGRILKEMVENGWLARIGNGRSTGYELR”, for which the “soluble fraction (log2)” value amounted to 0.244.
As to “HMPATIEGIRLYLSSGLIKGVGEEMASRIVKAFGTDTIRVLDEEPERLLKVRGVGKKSLDRIRTSWAEH”, the “soluble fraction (log2)” value is -0.585.
In the case of “HMPATPDATVQAVQQRLNELGYDVGSADGLMGRGTRSAIIAFQQDRGLAATGVADQALLLQLQP” it was -0.0545; in that of “HMPAWKINQELQATVIATKANQTRLRIEGQTFETQTAIALKPGQSLLIKVVSLEPQISFALI”, 0.199.
The figure for “HMPDFLAELAARMERDAVTEAQIRQVVAQKGHYPEEVSPAQYHPDFFRQWLFPHWEKIVDVIRSSPEYTP” is -0.539; for “HMPDGTATATASVNVRSGASTLSPVLGVLRVGESIGVTGQANGGWVPVNYNGRAGYVYAAYLSFD” it is -0.0669.
Turning to “HMPDKIDSAAQGILDKLIRNDGFMAVTDKSPPEAIYKLFGVSKKVFKQAIGSLYKNRLITIEDAGLRIIPQ”, the “soluble fraction (log2)” value was -0.214.
Turning to “HMPDLKIGKDHRLAEYIETKIAEDGYSPGAVLGEIKAKGLEFETEISKPTLYSYIDKGIFLTITNKELPV”, the “soluble fraction (log2)” value was 0.0942.
